According to patent US20230287598A1 (TAURUS BIOSCIENCES, published 2023):
Substitutions are numbered along the chain they refer to. Numbers in names are those of the source. Where two headings read alike, the source gives them in different places.

Columns and labels:
[1] = target: T1, CXCR1 (UniProt P25024 1-350, limits assumed); assay: flow cytometry, supernatant at 5 nM IgG
T1 construct: whole, on cells; DiscoveRx PathHunter cell line; any reporter tag on the receptor is not described; also called CXCR1 receptor; CXCR1-U2OS
T1 sequence (looked up): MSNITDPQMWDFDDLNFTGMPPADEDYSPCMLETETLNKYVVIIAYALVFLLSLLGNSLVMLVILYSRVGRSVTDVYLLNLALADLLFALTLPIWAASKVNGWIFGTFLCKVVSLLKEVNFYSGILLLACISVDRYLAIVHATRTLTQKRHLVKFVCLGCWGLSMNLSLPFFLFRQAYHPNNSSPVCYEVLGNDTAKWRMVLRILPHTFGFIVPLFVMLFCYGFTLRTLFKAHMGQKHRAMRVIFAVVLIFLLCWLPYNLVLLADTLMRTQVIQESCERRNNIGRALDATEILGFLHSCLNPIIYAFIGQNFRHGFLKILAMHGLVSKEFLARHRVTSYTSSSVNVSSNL

[2] = target: T1, CXCR1; assay: flow cytometry, supernatant at 5 nM IgG; remark: listed apart in the source

B1: VH4-34+CDR3-IL8_CDR1 Cow_CDR2 E50S / VL1-51 S2A, T5N, P8S, A12G, A13S, P14L, D51G, N52D, N53T IgG (antibody)
VH: QVQLQQWGAGLLKPSETLSLTCTASGFSLSDKAVGWIRQPPGKGLEWIGSINHSGSTNYNPSLKSRVTISVDTSKNQFSLKLSSVTAADTAVYYCTSVHQETKKYQSPRSAKELRCQCIKTYSKPFHPKFIKELRVIESGPHCANTEIIVKLSDGRELCLDPKENWVQRVVEKFLKRAENSGSGSYTYNYEWHVDVWGQGLLVTVSSAS
light: QAVLNQPSSVSGSLGQKVTISCSGSSSNIGNNYVSWYQQLPGTAPKLLIYGDTKRPSGIPDRFSGSKSGTSATLGITGLQTGDEADYYCASAEDSSSNAVFGSGTTLTVLGQPKAAPSVTLFPPSSEELQANKATLVCLISDFYPGAVTVAWKADSSPVKAGVETTTPSKQSNNKYAASSYLSLTPEQWKSHRSYSCQVTHEGSTVEKTVAPTECS
- Specific Binding (CXCR1-Cell median AFU / Parental Cell median AFU) [1]: 6

B2: VH4-34+CDR3-IL8_Q5RQ6E / VL1-51 S2A, T5N, P8S, A12G, A13S, P14L, K46R, L47T, D51G, N52D, N53T IgG (antibody)
VH: QVQLREWGAGLLKPSETLSLTCAVYGGSFSGYYWSWIRQPPGKGLEWIGEINHSGSTNYNPSLKSRVTISVDTSKNQFSLKLSSVTAADTAVYYCTSVHQETKKYQSPRSAKELRCQCIKTYSKPFHPKFIKELRVIESGPHCANTEIIVKLSDGRELCLDPKENWVQRVVEKFLKRAENSGSGSYTYNYEWHVDVWGQGLLVTVSS
light: B1 light with K46R, L47T
notes: nt HC 490, LC 486
- Specific Binding (CXCR1-Cell median AFU / Parental Cell median AFU) [2]: 10

B3: VH4-34+CDR3-IL8_CDR1-G31DY32K_Q5RQ6E / VL1-51 S2A, T5N, P8S, A12G, A13S, P14L, D51G, N52D, N53T IgG (antibody)
VH: B2 VH with G31D, Y32K
light: B1 light
- Specific Binding (CXCR1-Cell median AFU / Parental Cell median AFU) [2]: 2

B4: VH4-34+CDR3-IL8_CDR1-G31DY32K_CDR2-E50S_Q5RQ6E / VL1-51 I29V, N32G, K46R, L47T, D51G, N52D, N53T IgG (antibody)
VH: B2 VH with G31D, Y32K, E50S
light: B1 light with A2S, N5T, S8P, G12A, S13A, L14P, I29V, N32G, K46R, L47T
- Specific Binding (CXCR1-Cell median AFU / Parental Cell median AFU) [2]: 1

B5: VH4-34+CDR3-IL8_CDR1-Cow_CDR2-Cow_Q5RQ6E / VL1-51 I29V, N32G, K46R, L47T, D51G, N52D, N53T IgG (antibody)
VH: QVQLREWGAGLLKPSETLSLTCTASGFSLSDKAVGWIRQPPGKGLEWLGSIDTGGNTGYNPSLKSRVTISVDTSKNQFSLKLSSVTAADTAVYYCTSVHQETKKYQSPRSAKELRCQCIKTYSKPFHPKFIKELRVIESGPHCANTEIIVKLSDGRELCLDPKENWVQRVVEKFLKRAENSGSGSYTYNYEWHVDVWGQGLLVTVSS
light: B1 light with A2S, N5T, S8P, G12A, S13A, L14P, I29V, N32G, K46R, L47T
- Specific Binding (CXCR1-Cell median AFU / Parental Cell median AFU) [2]: 1

B6: VH4-34+CDR3-IL8_CDR1-Cow_CDR2-E50S_Q5RQ6E / VL1-51 S2A, T5N, P8S, A12G, A13S, P14L, K46R, L47T, D51G, N52D, N53T, K54S, P56A IgG (antibody)
VH: B5 VH with L48I, D52N, T53H, G54S, N56S, G58N
light: B1 light with K46R, L47T, K54S, P56A
- Specific Binding (CXCR1-Cell median AFU / Parental Cell median AFU) [2]: 2

B7: VH4-34+CDR3-IL8_CDR2-Cow_Q5RQ6E / VL1-51 S2A, T5N, P8S, A12G, A13S, P14L, K46R, L47T, D51G, N52D, N53T, K54S, P56A IgG (antibody)
VH: B2 VH with I48L, E50S, N52D, H53T, S54G, S56N, N58G
light: B1 light with K46R, L47T, K54S, P56A
- Specific Binding (CXCR1-Cell median AFU / Parental Cell median AFU) [2]: 1

B8: VH4-34+CDR3-IL8_CDR1 G31D,Y32K_CDR2 E50S / VL1-51 S2A, T5N, P8S, A12G, A13S, P14L, D51G, N52D, N53T IgG (antibody)
VH: B1 VH with T23A, A24V, S25Y, F27G, L29F, A33Y, V34W, G35S
light: B1 light
- Specific Binding (CXCR1-Cell median AFU / Parental Cell median AFU) [1]: 17

B9: VH4-34+CDR3-IL8 / VL1-51 S2A, T5N, P8S, A12G, A13S, P14L, D51G, N52D, N53T IgG (antibody)
VH: QVQLQQWGAGLLKPSETLSLTCAVYGGSFSGYYWSWIRQPPGKGLEWIGEINHSGSTNYNPSLKSRVTISVDTSKNQFSLKLSSVTAADTAVYYCTSVHQETKKYQSPRSAKELRCQCIKTYSKPFHPKFIKELRVIESGPHCANTEIIVKLSDGRELCLDPKENWVQRVVEKFLKRAENSGSGSYTYNYEWHVDVWGQGLLVTVSSAS
light: B1 light
notes: nt HC 430, LC 444
- Specific Binding (CXCR1-Cell median AFU / Parental Cell median AFU) [1]: 3

B10: VH4-34+CDR3-IL8_CDR1 Cow / VL1-51 S2A, T5N, P8S, A12G, A13S, P14L, K46R, L47T, D51G, N52D, N53T IgG (antibody)
VH: B1 VH with S50E
light: B1 light with K46R, L47T
- Specific Binding (CXCR1-Cell median AFU / Parental Cell median AFU) [1]: 10

B11: VH4-34+CDR3-IL8_CDR1-Cow_Q5RQ6E / VL1-51 S2A, T5N, P8S, A12G, A13S, P14L, K46R, L47T, D51G, N52D, N53T, K54S, P56A IgG (antibody)
VH: B5 VH with L48I, S50E, D52N, T53H, G54S, N56S, G58N
light: B1 light with K46R, L47T, K54S, P56A
- Specific Binding (CXCR1-Cell median AFU / Parental Cell median AFU) [2]: 3

B12: VH4-34+CDR3-IL8_CDR1 G31D,Y32K / VL1-51 S2A, T5N, P8S, A12G, A13S, P14L IgG (antibody)
VH: B9 VH with G31D, Y32K
light: B1 light with G51D, D52N, T53N
- Specific Binding (CXCR1-Cell median AFU / Parental Cell median AFU) [1]: 4

B13: VH4-34+CDR3-IL8_Q5RQ6E / VL1-51 S2A, T5N, P8S, A12G, A13S, P14L, K46R, L47T, D51G, N52D, N53T, K54S, P56A IgG (antibody)
VH: B2 VH
light: B1 light with K46R, L47T, K54S, P56A
- Specific Binding (CXCR1-Cell median AFU / Parental Cell median AFU) [2]: 3

B14: VH4-34+CDR3-IL8_CDR1-Cow_Q5RQ6E / VL1-51 I29V, N32G, K46R, L47T, D51G, N52D, N53T, K54S, P56A IgG (antibody)
VH: B5 VH with L48I, S50E, D52N, T53H, G54S, N56S, G58N
light: QSVLTQPPSVSAAPGQKVTISCSGSSSNVGNGYVSWYQQLPGTAPRTLIYGDTSRASGIPDRFSGSKSGTSATLGITGLQTGDEADYYCASAEDSSSNAVFGSGTTLTVLGQPKAAPSVTLFPPSSEELQANKATLVCLISDFYPGAVTVAWKADSSPVKAGVETTTPSKQSNNKYAASSYLSLTPEQWKSHRSYSCQVTHEGSTVEKTVAPTECS
- Specific Binding (CXCR1-Cell median AFU / Parental Cell median AFU) [2]: 2

B15: VH4-34+CDR3-IL8_CDR1-Cow_CDR2-E50S_Q5RQ6E / VL1-51 I29V, N32G, K46R, L47T, D51G, N52D, N53T IgG (antibody)
VH: B5 VH with L48I, D52N, T53H, G54S, N56S, G58N
light: B14 light with S54K, A56P
- Specific Binding (CXCR1-Cell median AFU / Parental Cell median AFU) [2]: 1

B16: VH4-34+CDR3-IL8_CDR1-Cow_CDR2-Cow_Q5RQ6E / VL1-51 S2A, T5N, P8S, A12G, A13S, P14L, K46R, L47T, D51G, N52D, N53T, K54S, P56A IgG (antibody)
VH: B5 VH
light: B1 light with K46R, L47T, K54S, P56A
- Specific Binding (CXCR1-Cell median AFU / Parental Cell median AFU) [2]: 2
